In paper PMC10309190, “A PI(3,5)P2 reporter reveals PIKfyve activity and dynamics on macropinosomes and phagosomes” (The Journal of Cell Biology, 2023) one finds percent of the protein, stoichiometry N and Kd data, which are given here for two substances.

For assay [1], the target named is full-length SnxA, recombinant N-terminal 6xHis and eGFP fusion (Dictyostelium discoideum). Description: mass photometry; recombinant GFP fusions diluted to 25-50 nM in 250 mM NaCl, 20 mM Hepes, 0.5 M TCEP (so in the source) immediately before measurement; OneMP mass photometer; monomer to dimer.
For assay [2], the target named is T1, SnxA (full-length SnxA-GFP; DDB_G0289833) (Dictyostelium discoideum, UniProt Q54GY1).
T1 construct: full length (PX domain plus coiled coil); N-terminal 6xHis and eGFP kept; E. coli BL21; mostly dimer, apparent 181 kD by mass photometry
T1 sequence (Q54GY1 1-186): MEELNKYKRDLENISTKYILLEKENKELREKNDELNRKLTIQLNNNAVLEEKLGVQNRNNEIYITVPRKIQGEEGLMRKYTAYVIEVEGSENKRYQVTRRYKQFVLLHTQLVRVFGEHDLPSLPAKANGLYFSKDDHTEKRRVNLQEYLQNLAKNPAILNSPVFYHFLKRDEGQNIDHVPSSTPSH
The assay can be described thus: microscopy of GFP recruitment to membrane-coated beads, probe titration. It counts as binding. The note with it: 5 mol% phosphoinositide in 95 mol% POPC bilayers on silica beads; 150 mM NaCl, 20 mM Hepes, 0.5 mM TCEP, room temperature; acyl chains not given; avidity of dimer; read-out: apparent Kd.

The target of assay [3] is T2, 2xPX (2xPX-GFP, tandem repeat of the SnxA PX domain) (Dictyostelium discoideum, UniProt Q54GY1).
T2 construct: gene DDB_G0289833; N-terminal 6xHis and eGFP kept; E. coli BL21; single population, apparent 104 kD by mass photometry
Described as above. The note with it: 5 mol% phosphoinositide in 95 mol% POPC bilayers on silica beads; 150 mM NaCl, 20 mM Hepes, 0.5 mM TCEP, room temperature; acyl chains not given; avidity of tandem domains; read-out: apparent Kd. It counts as binding.

Regarding “full-length SnxA, recombinant N-terminal 6xHis and eGFP fusion (natural protein)”, in assay [1], the percent of the protein at the dimer's apparent mass was found to be 85% and the stoichiometry N (usually a count of units in the complex or per binding partner) is 2.
Turning to PI(3,5)P2, the Kd in assay [2] was 187 ± 13 nM; in assay [3], 218 ± 7 nM.
